Experimental data published in US20250073311A1, “DOSAGE REGIME” (ZEALAND PHARMA A/S, priority 2021, published 2025).
Numbered stars: 1 amine (or outer) side, 2 acyl side, 3 side chain; on linkers, the order of the positions; unused ones are H or OH. Square brackets hold non-standard residues; d marks the D form. Side chains are listed from the residue outwards. * marks the point of attachment. C20 diacid = O=C(O)CCCCCCCCCCCCCCCCCCC(=O)*; C18 diacid = O=C(O)CCCCCCCCCCCCCCCCC(=O)*; γGlu = O=C(O)[C@H](CCC(=O)[*:2])N[*:1]; AEEA = NCCOCCOCC(=O)O; Aib = CC(C)(N)C(=O)O

T1: human GLP-2 receptor (hGLP2-R) (human, UniProt O95838)
T1 sequence: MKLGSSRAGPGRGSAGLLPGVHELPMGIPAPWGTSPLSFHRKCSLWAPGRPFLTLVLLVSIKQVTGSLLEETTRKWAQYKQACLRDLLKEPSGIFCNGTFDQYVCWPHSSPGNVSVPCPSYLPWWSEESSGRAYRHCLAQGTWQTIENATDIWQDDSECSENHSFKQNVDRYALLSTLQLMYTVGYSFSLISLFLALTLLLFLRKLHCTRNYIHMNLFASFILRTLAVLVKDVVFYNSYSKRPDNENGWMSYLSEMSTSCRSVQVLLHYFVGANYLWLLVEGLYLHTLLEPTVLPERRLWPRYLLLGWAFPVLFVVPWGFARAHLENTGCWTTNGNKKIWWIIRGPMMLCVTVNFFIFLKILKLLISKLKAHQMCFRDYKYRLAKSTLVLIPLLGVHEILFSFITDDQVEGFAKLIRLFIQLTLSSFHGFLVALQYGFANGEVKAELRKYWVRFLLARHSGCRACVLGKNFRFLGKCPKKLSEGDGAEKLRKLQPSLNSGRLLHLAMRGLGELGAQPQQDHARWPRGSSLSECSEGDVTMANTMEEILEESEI

B1: Compound 5 (peptide)
peptide: H-H[Aib]EGSFTSELATILDK([γGlu-C18 diacid])KAARDFIAWLIEHKITD-OH
SMILES: CC[C@H](C)[C@H](NC(=O)[C@H](Cc1ccccc1)NC(=O)[C@H](CC(=O)O)NC(=O)[C@H](CCCNC(=N)N)NC(=O)[C@H](C)NC(=O)[C@H](C)NC(=O)[C@H](CCCCN)NC(=O)[C@H](CCCCNC(=O)CC[C@H](NC(=O)CCCCCCCCCCCCCCCCC(=O)O)C(=O)O)NC(=O)[C@H](CC(=O)O)NC(=O)[C@H](CC(C)C)NC(=O)[C@@H](NC(=O)[C@@H](NC(=O)[C@H](C)NC(=O)[C@H](CC(C)C)NC(=O)[C@H](CCC(=O)O)NC(=O)[C@H](CO)NC(=O)[C@@H](NC(=O)[C@H](Cc1ccccc1)NC(=O)[C@H](CO)NC(=O)CNC(=O)[C@H](CCC(=O)O)NC(=O)C(C)(C)NC(=O)[C@@H](N)Cc1c[nH]cn1)[C@@H](C)O)[C@@H](C)O)[C@@H](C)CC)C(=O)N[C@@H](C)C(=O)N[C@@H](Cc1c[nH]c2ccccc12)C(=O)N[C@@H](CC(C)C)C(=O)N[C@H](C(=O)N[C@@H](CCC(=O)O)C(=O)N[C@@H](Cc1c[nH]cn1)C(=O)N[C@@H](CCCCN)C(=O)N[C@H](C(=O)N[C@H](C(=O)N[C@@H](CC(=O)O)C(=O)O)[C@@H](C)O)[C@@H](C)CC)[C@@H](C)CC
B2: Compound 7 (peptide)
peptide: H-H[Aib]EGTFSSELATILDGK([γGlu-C18 diacid])AARDFIAWLIEHKITD-OH
SMILES: CC[C@H](C)[C@H](NC(=O)[C@H](Cc1ccccc1)NC(=O)[C@H](CC(=O)O)NC(=O)[C@H](CCCNC(=N)N)NC(=O)[C@H](C)NC(=O)[C@H](C)NC(=O)[C@H](CCCCNC(=O)CC[C@H](NC(=O)CCCCCCCCCCCCCCCCC(=O)O)C(=O)O)NC(=O)CNC(=O)[C@H](CC(=O)O)NC(=O)[C@H](CC(C)C)NC(=O)[C@@H](NC(=O)[C@@H](NC(=O)[C@H](C)NC(=O)[C@H](CC(C)C)NC(=O)[C@H](CCC(=O)O)NC(=O)[C@H](CO)NC(=O)[C@H](CO)NC(=O)[C@H](Cc1ccccc1)NC(=O)[C@@H](NC(=O)CNC(=O)[C@H](CCC(=O)O)NC(=O)C(C)(C)NC(=O)[C@@H](N)Cc1c[nH]cn1)[C@@H](C)O)[C@@H](C)O)[C@@H](C)CC)C(=O)N[C@@H](C)C(=O)N[C@@H](Cc1c[nH]c2ccccc12)C(=O)N[C@@H](CC(C)C)C(=O)N[C@H](C(=O)N[C@@H](CCC(=O)O)C(=O)N[C@@H](Cc1c[nH]cn1)C(=O)N[C@@H](CCCCN)C(=O)N[C@H](C(=O)N[C@H](C(=O)N[C@@H](CC(=O)O)C(=O)O)[C@@H](C)O)[C@@H](C)CC)[C@@H](C)CC
B3: Compound 8 (peptide)
peptide: H-H[Aib]EGSFTSELATILDGK([γGlu-C18 diacid])AARDFIAWLIEHKITD-OH
SMILES: CC[C@H](C)[C@H](NC(=O)[C@H](Cc1ccccc1)NC(=O)[C@H](CC(=O)O)NC(=O)[C@H](CCCNC(=N)N)NC(=O)[C@H](C)NC(=O)[C@H](C)NC(=O)[C@H](CCCCNC(=O)CC[C@H](NC(=O)CCCCCCCCCCCCCCCCC(=O)O)C(=O)O)NC(=O)CNC(=O)[C@H](CC(=O)O)NC(=O)[C@H](CC(C)C)NC(=O)[C@@H](NC(=O)[C@@H](NC(=O)[C@H](C)NC(=O)[C@H](CC(C)C)NC(=O)[C@H](CCC(=O)O)NC(=O)[C@H](CO)NC(=O)[C@@H](NC(=O)[C@H](Cc1ccccc1)NC(=O)[C@H](CO)NC(=O)CNC(=O)[C@H](CCC(=O)O)NC(=O)C(C)(C)NC(=O)[C@@H](N)Cc1c[nH]cn1)[C@@H](C)O)[C@@H](C)O)[C@@H](C)CC)C(=O)N[C@@H](C)C(=O)N[C@@H](Cc1c[nH]c2ccccc12)C(=O)N[C@@H](CC(C)C)C(=O)N[C@H](C(=O)N[C@@H](CCC(=O)O)C(=O)N[C@@H](Cc1c[nH]cn1)C(=O)N[C@@H](CCCCN)C(=O)N[C@H](C(=O)N[C@H](C(=O)N[C@@H](CC(=O)O)C(=O)O)[C@@H](C)O)[C@@H](C)CC)[C@@H](C)CC
B4: Compound 9 (peptide)
peptide: H-H[Aib]EGTFTSELATILDGK([γGlu-C18 diacid])AARDFIAWLIEHKITD-OH
SMILES: CC[C@H](C)[C@H](NC(=O)[C@H](Cc1ccccc1)NC(=O)[C@H](CC(=O)O)NC(=O)[C@H](CCCNC(=N)N)NC(=O)[C@H](C)NC(=O)[C@H](C)NC(=O)[C@H](CCCCNC(=O)CC[C@H](NC(=O)CCCCCCCCCCCCCCCCC(=O)O)C(=O)O)NC(=O)CNC(=O)[C@H](CC(=O)O)NC(=O)[C@H](CC(C)C)NC(=O)[C@@H](NC(=O)[C@@H](NC(=O)[C@H](C)NC(=O)[C@H](CC(C)C)NC(=O)[C@H](CCC(=O)O)NC(=O)[C@H](CO)NC(=O)[C@@H](NC(=O)[C@H](Cc1ccccc1)NC(=O)[C@@H](NC(=O)CNC(=O)[C@H](CCC(=O)O)NC(=O)C(C)(C)NC(=O)[C@@H](N)Cc1c[nH]cn1)[C@@H](C)O)[C@@H](C)O)[C@@H](C)O)[C@@H](C)CC)C(=O)N[C@@H](C)C(=O)N[C@@H](Cc1c[nH]c2ccccc12)C(=O)N[C@@H](CC(C)C)C(=O)N[C@H](C(=O)N[C@@H](CCC(=O)O)C(=O)N[C@@H](Cc1c[nH]cn1)C(=O)N[C@@H](CCCCN)C(=O)N[C@H](C(=O)N[C@H](C(=O)N[C@@H](CC(=O)O)C(=O)O)[C@@H](C)O)[C@@H](C)CC)[C@@H](C)CC
B5: Compound 10 (peptide)
peptide: H-H[Aib]EGTFSSELATILDK([γGlu-C18 diacid])LAARDFIAWLIEHKITD-OH
SMILES: CC[C@H](C)[C@H](NC(=O)[C@H](Cc1ccccc1)NC(=O)[C@H](CC(=O)O)NC(=O)[C@H](CCCNC(=N)N)NC(=O)[C@H](C)NC(=O)[C@H](C)NC(=O)[C@H](CC(C)C)NC(=O)[C@H](CCCCNC(=O)CC[C@H](NC(=O)CCCCCCCCCCCCCCCCC(=O)O)C(=O)O)NC(=O)[C@H](CC(=O)O)NC(=O)[C@H](CC(C)C)NC(=O)[C@@H](NC(=O)[C@@H](NC(=O)[C@H](C)NC(=O)[C@H](CC(C)C)NC(=O)[C@H](CCC(=O)O)NC(=O)[C@H](CO)NC(=O)[C@H](CO)NC(=O)[C@H](Cc1ccccc1)NC(=O)[C@@H](NC(=O)CNC(=O)[C@H](CCC(=O)O)NC(=O)C(C)(C)NC(=O)[C@@H](N)Cc1c[nH]cn1)[C@@H](C)O)[C@@H](C)O)[C@@H](C)CC)C(=O)N[C@@H](C)C(=O)N[C@@H](Cc1c[nH]c2ccccc12)C(=O)N[C@@H](CC(C)C)C(=O)N[C@H](C(=O)N[C@@H](CCC(=O)O)C(=O)N[C@@H](Cc1c[nH]cn1)C(=O)N[C@@H](CCCCN)C(=O)N[C@H](C(=O)N[C@H](C(=O)N[C@@H](CC(=O)O)C(=O)O)[C@@H](C)O)[C@@H](C)CC)[C@@H](C)CC
B6: Compound 11 (peptide)
peptide: H-H[Aib]EGSFTSELATILDK([γGlu-C18 diacid])LAARDFIAWLIEHKITD-OH
SMILES: CC[C@H](C)[C@H](NC(=O)[C@H](Cc1ccccc1)NC(=O)[C@H](CC(=O)O)NC(=O)[C@H](CCCNC(=N)N)NC(=O)[C@H](C)NC(=O)[C@H](C)NC(=O)[C@H](CC(C)C)NC(=O)[C@H](CCCCNC(=O)CC[C@H](NC(=O)CCCCCCCCCCCCCCCCC(=O)O)C(=O)O)NC(=O)[C@H](CC(=O)O)NC(=O)[C@H](CC(C)C)NC(=O)[C@@H](NC(=O)[C@@H](NC(=O)[C@H](C)NC(=O)[C@H](CC(C)C)NC(=O)[C@H](CCC(=O)O)NC(=O)[C@H](CO)NC(=O)[C@@H](NC(=O)[C@H](Cc1ccccc1)NC(=O)[C@H](CO)NC(=O)CNC(=O)[C@H](CCC(=O)O)NC(=O)C(C)(C)NC(=O)[C@@H](N)Cc1c[nH]cn1)[C@@H](C)O)[C@@H](C)O)[C@@H](C)CC)C(=O)N[C@@H](C)C(=O)N[C@@H](Cc1c[nH]c2ccccc12)C(=O)N[C@@H](CC(C)C)C(=O)N[C@H](C(=O)N[C@@H](CCC(=O)O)C(=O)N[C@@H](Cc1c[nH]cn1)C(=O)N[C@@H](CCCCN)C(=O)N[C@H](C(=O)N[C@H](C(=O)N[C@@H](CC(=O)O)C(=O)O)[C@@H](C)O)[C@@H](C)CC)[C@@H](C)CC

Target: human glucagon-like peptide 1 receptor (GLP-1R) (human, UniProt P43220)
Experiment: cell-based or functional assay

Row | Binder | EC50 GLP-1 (nM), cAMP AlphaScreen [nM]
1 | H-H[Aib]EGSFTSELATILDEQAAK([AEEA-AEEA-KEK-γGlu-C20 diacid])DFIAWLIEHKITD-OH [Compound 66] | 0.65
2 | H-H[Aib]EGTFTSELATILDEQAAK([AEEA-AEEA-KEK-γGlu-C20 diacid])DFIAWLIEHKITD-OH [Compound 67] | 0.16
3 | H-H[Aib]EGSFTSELATILDAKAAK([AEEA-KEK-γGlu-C20 diacid])DFIAWLIEHKITD-OH [Compound 68] | 0.084
4 | H-H[Aib]EGTFSSELATILDK([γGlu-C18 diacid])KAARDFIAWLIEHKITD-OH [Compound 4] | 0.66
5 | B1 | 0.17
6 | H-H[Aib]EGTFTSELATILDK([γGlu-C18 diacid])KAARDFIAWLIEHKITD-OH [Compound 6] | 0.058
7 | B2 | 0.92
8 | B3 | 0.22
9 | B4 | 0.056
10 | B5 | 1.8
11 | B6 | 0.32

Target: T1, human GLP-2 receptor (hGLP2-R)
Experiment: cell-based or functional assay

Row | Binder | EC50 GLP-2 (nM), cAMP AlphaScreen [nM]
12 | H-H[Aib]EGSFTSELATILDEQAAK([AEEA-AEEA-KEK-γGlu-C20 diacid])DFIAWLIEHKITD-OH [Compound 66] | 0.18
13 | H-H[Aib]EGTFTSELATILDEQAAK([AEEA-AEEA-KEK-γGlu-C20 diacid])DFIAWLIEHKITD-OH [Compound 67] | 0.22
14 | H-H[Aib]EGSFTSELATILDAKAAK([AEEA-KEK-γGlu-C20 diacid])DFIAWLIEHKITD-OH [Compound 68] | 0.1
15 | H-H[Aib]EGTFSSELATILDK([γGlu-C18 diacid])KAARDFIAWLIEHKITD-OH [Compound 4] | 0.087
16 | B1 | 0.063
17 | H-H[Aib]EGTFTSELATILDK([γGlu-C18 diacid])KAARDFIAWLIEHKITD-OH [Compound 6] | 0.12
18 | B2 | 0.019
19 | B3 | 0.039
20 | B4 | 0.056
21 | B5 | 0.087
22 | B6 | 0.085
